Data reported in patent publication US20170081400A1 (CEPHALON, published 2017).

Key:
[1] = molecular target: T1, human TL1A extracellular domain with N-terminal HIS and FLAG tag (human, UniProt O95150 72-251); experiment: SPR Run 4, purified Ab captured on Protein A, TL1A 5 ug/mL, timepoint 44
T1 construct: the whole entry is named
T1 sequence: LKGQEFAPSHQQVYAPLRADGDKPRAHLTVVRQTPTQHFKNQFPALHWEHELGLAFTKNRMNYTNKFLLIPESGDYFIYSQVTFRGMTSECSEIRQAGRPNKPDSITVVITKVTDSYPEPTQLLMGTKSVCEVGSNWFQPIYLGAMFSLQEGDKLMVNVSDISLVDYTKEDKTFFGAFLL
Text: (§1) 1.5. Antibody expression and antigen binding as determined by SPR. Using a CM5 sensor chip (GE Healthcare) Protein A (Pierce) was coupled to the chip surface using an amine coupling kit (GE Healthcare). Protein A was coupled on flow cell 1 and 2 (or alternatively 3 and 4) using a BIACORE® T200. […] The amount of supernatant or purified protein (as well as the concentration) injected during the capture stage varied between runs and is specified in the header of the Tables 3-11. At the end of injection of the supernatant or purified antibody the change in response units was measured. This value was reported as Capture Level in Tables 3-11. […] The response units were measured prior to the end of the dissociation phase. […] The sensorgrams were double referenced (flow cell 2 is subtracted from flow cell 1 and a buffer blank). As there were a large number of antibody variants to screen, these were screened across different runs (Tables 3-11). […] A summary of the conditions used in each run is below:
(§2) 2.1. […] In some experiment the antibodies were purified using Protein A chromatography (See 1.4) and purified antibodies were used in BIACORE® (GE Healthcare) experiments.

[2] = molecular target: T1, human TL1A extracellular domain with …; experiment: SPR Run 4, purified Ab captured on Protein A, TL1A 5 ug/mL, timepoint 220
Text: as §1, §2

B1: 320-341 (antibody, human IgG1, name in Kabat numbering, V domains shown)
VH: QVQLVQSGAEVKKPGASVKVSCKASGYTFTSYDINWVRQAPGQGLEWMGWLNPNSGNTGYAQKFQGRVTMTADRSTSTAYMELSSLRSEDTAVYYCAREVPETAAFEYWGQGTLVTVSS
VL: QSVLTQPPSVSGAPGQRVTISCTSSSSDIGAGLGVHWYQQLPGTAPKLLIEGYYNRPSGVPDRFSGSKSGTSASLTITGLLPEDEGDYYCQSYDSTLSALFGGGTKLTVLG
notes: human IgG1, lambda
B1 was tested, and the “TL1A Binding Level (Early)” value [1] was 149 RU and the “TL1A Binding Level (Late)” value [2] was 135 RU.

B2: 320-352 (antibody, human IgG1, name in Kabat numbering, V domains shown)
VH: QVQLVQSGAEVKKPGASVKVSCKASGYTFTSYDINWVRQAPGQGLEWMGWLNPNSGNTGYAQKFQGRVTMTADRSTSTAYMELSSLRSEDTAVYYCAREVPETAAFEYWGQGTLVTVSS
VL: QSVLTQPPSVSGAPGQRVTISCTSSSSDIGAGLGVHWYQQLPGTAPKLLIEGYYNRPSGVPDRFSGSKSGTSASLTITGLLPEDEGDYYCQSYDGDLSALFGGGTKLTVLG
notes: human IgG1, lambda
In the case of B2, the “TL1A Binding Level (Early)” value [1] is reported as 101 RU and the “TL1A Binding Level (Late)” value [2] is reported as 63 RU.

B3: 320-344 (antibody, human IgG1, name in Kabat numbering, V domains shown)
VH: QVQLVQSGAEVKKPGASVKVSCKASGYTFTSYDINWVRQAPGQGLEWMGWLNPNSGNTGYAQKFQGRVTMTADRSTSTAYMELSSLRSEDTAVYYCAREVPETAAFEYWGQGTLVTVSS
VL: QSVLTQPPSVSGAPGQRVTISCTSSSSDIGAGLGVHWYQQLPGTAPKLLIEGYYNRPSGVPDRFSGSKSGTSASLTITGLLPEDEGDYYCQSYDHTLSALFGGGTKLTVLG
notes: human IgG1, lambda
For B3, the “TL1A Binding Level (Early)” value [1] was 117 RU and the “TL1A Binding Level (Late)” value [2] was 87 RU.

B4: 320-353 (antibody, human IgG1, name in Kabat numbering, V domains shown)
VH: QVQLVQSGAEVKKPGASVKVSCKASGYTFTSYDINWVRQAPGQGLEWMGWLNPNSGNTGYAQKFQGRVTMTADRSTSTAYMELSSLRSEDTAVYYCAREVPETAAFEYWGQGTLVTVSS
VL: QSVLTQPPSVSGAPGQRVTISCTSSSSDIGAGLGVHWYQQLPGTAPKLLIEGYYNRPSGVPDRFSGSKSGTSASLTITGLLPEDEGDYYCQSYDGHLSALFGGGTKLTVLG
notes: human IgG1, lambda
In the case of B4, the “TL1A Binding Level (Early)” value [1] is reported as 97 RU and the “TL1A Binding Level (Late)” value [2] is reported as 73 RU.

B5: 320-347 (antibody, human IgG1, name in Kabat numbering, V domains shown)
VH: QVQLVQSGAEVKKPGASVKVSCKASGYTFTSYDINWVRQAPGQGLEWMGWLNPNSGNTGYAQKFQGRVTMTADRSTSTAYMELSSLRSEDTAVYYCAREVPETAAFEYWGQGTLVTVSS
VL: QSVLTQPPSVSGAPGQRVTISCTSSSSDIGAGLGVHWYQQLPGTAPKLLIEGYYNRPSGVPDRFSGSKSGTSASLTITGLLPEDEGDYYCQSYDWTLSALFGGGTKLTVLG
notes: human IgG1, lambda
In the case of B5, the “TL1A Binding Level (Early)” value [1] is reported as 149 RU and the “TL1A Binding Level (Late)” value [2] is reported as 130 RU.

B6: 320-350 (antibody, human IgG1, name in Kabat numbering, V domains shown)
VH: QVQLVQSGAEVKKPGASVKVSCKASGYTFTSYDINWVRQAPGQGLEWMGWLNPNSGNTGYAQKFQGRVTMTADRSTSTAYMELSSLRSEDTAVYYCAREVPETAAFEYWGQGTLVTVSS
VL: QSVLTQPPSVSGAPGQRVTISCTSSSSDIGAGLGVHWYQQLPGTAPKLLIEGYYNRPSGVPDRFSGSKSGTSASLTITGLLPEDEGDYYCQSYDGSLSALFGGGTKLTVLG
notes: human IgG1, lambda
With B6 the “TL1A Binding Level (Early)” value [1] was 130 RU and the “TL1A Binding Level (Late)” value [2] was 118 RU.

B7: 320-346 (antibody, human IgG1, name in Kabat numbering, V domains shown)
VH: QVQLVQSGAEVKKPGASVKVSCKASGYTFTSYDINWVRQAPGQGLEWMGWLNPNSGNTGYAQKFQGRVTMTADRSTSTAYMELSSLRSEDTAVYYCAREVPETAAFEYWGQGTLVTVSS
VL: QSVLTQPPSVSGAPGQRVTISCTSSSSDIGAGLGVHWYQQLPGTAPKLLIEGYYNRPSGVPDRFSGSKSGTSASLTITGLLPEDEGDYYCQSYDLTLSALFGGGTKLTVLG
notes: human IgG1, lambda
B7 was tested, and the “TL1A Binding Level (Early)” value [1] was 126 RU and the “TL1A Binding Level (Late)” value [2] was 107 RU.

B8: 320-342 (antibody, human IgG1, name in Kabat numbering, V domains shown)
VH: QVQLVQSGAEVKKPGASVKVSCKASGYTFTSYDINWVRQAPGQGLEWMGWLNPNSGNTGYAQKFQGRVTMTADRSTSTAYMELSSLRSEDTAVYYCAREVPETAAFEYWGQGTLVTVSS
VL: QSVLTQPPSVSGAPGQRVTISCTSSSSDIGAGLGVHWYQQLPGTAPKLLIEGYYNRPSGVPDRFSGSKSGTSASLTITGLLPEDEGDYYCQSYDQTLSALFGGGTKLTVLG
notes: human IgG1, lambda
With B8 the “TL1A Binding Level (Early)” value [1] was 152 RU and the “TL1A Binding Level (Late)” value [2] was 139 RU.

B9: 320-354 (antibody, human IgG1, name in Kabat numbering, V domains shown)
VH: QVQLVQSGAEVKKPGASVKVSCKASGYTFTSYDINWVRQAPGQGLEWMGWLNPNSGNTGYAQKFQGRVTMTADRSTSTAYMELSSLRSEDTAVYYCAREVPETAAFEYWGQGTLVTVSS
VL: QSVLTQPPSVSGAPGQRVTISCTSSSSDIGAGLGVHWYQQLPGTAPKLLIEGYYNRPSGVPDRFSGSKSGTSASLTITGLLPEDEGDYYCQSYDGKLSALFGGGTKLTVLG
notes: human IgG1, lambda
With B9 the “TL1A Binding Level (Early)” value [1] was 53 RU and the “TL1A Binding Level (Late)” value [2] was 30 RU.

B10: 320-351 (antibody, human IgG1, name in Kabat numbering, V domains shown)
VH: QVQLVQSGAEVKKPGASVKVSCKASGYTFTSYDINWVRQAPGQGLEWMGWLNPNSGNTGYAQKFQGRVTMTADRSTSTAYMELSSLRSEDTAVYYCAREVPETAAFEYWGQGTLVTVSS
VL: QSVLTQPPSVSGAPGQRVTISCTSSSSDIGAGLGVHWYQQLPGTAPKLLIEGYYNRPSGVPDRFSGSKSGTSASLTITGLLPEDEGDYYCQSYDGQLSALFGGGTKLTVLG
notes: human IgG1, lambda
In the case of B10, the “TL1A Binding Level (Early)” value [1] is reported as 112 RU and the “TL1A Binding Level (Late)” value [2] is reported as 83 RU.

B11: 320-349 (antibody, human IgG1, name in Kabat numbering, V domains shown)
VH: QVQLVQSGAEVKKPGASVKVSCKASGYTFTSYDINWVRQAPGQGLEWMGWLNPNSGNTGYAQKFQGRVTMTADRSTSTAYMELSSLRSEDTAVYYCAREVPETAAFEYWGQGTLVTVSS
VL: QSVLTQPPSVSGAPGQRVTISCTSSSSDIGAGLGVHWYQQLPGTAPKLLIEGYYNRPSGVPDRFSGSKSGTSASLTITGLLPEDEGDYYCQSYDGALSALFGGGTKLTVLG
notes: human IgG1, lambda
For B11, the “TL1A Binding Level (Early)” value [1] was 112 RU and the “TL1A Binding Level (Late)” value [2] was 88 RU.

B12: 320-348 (antibody, human IgG1, name in Kabat numbering, V domains shown)
VH: QVQLVQSGAEVKKPGASVKVSCKASGYTFTSYDINWVRQAPGQGLEWMGWLNPNSGNTGYAQKFQGRVTMTADRSTSTAYMELSSLRSEDTAVYYCAREVPETAAFEYWGQGTLVTVSS
VL: QSVLTQPPSVSGAPGQRVTISCTSSSSDIGAGLGVHWYQQLPGTAPKLLIEGYYNRPSGVPDRFSGSKSGTSASLTITGLLPEDEGDYYCQSYDYTLSALFGGGTKLTVLG
notes: human IgG1, lambda
With B12 the “TL1A Binding Level (Early)” value [1] was 144 RU and the “TL1A Binding Level (Late)” value [2] was 127 RU.

B13: 320-343 (antibody, human IgG1, name in Kabat numbering, V domains shown)
VH: QVQLVQSGAEVKKPGASVKVSCKASGYTFTSYDINWVRQAPGQGLEWMGWLNPNSGNTGYAQKFQGRVTMTADRSTSTAYMELSSLRSEDTAVYYCAREVPETAAFEYWGQGTLVTVSS
VL: QSVLTQPPSVSGAPGQRVTISCTSSSSDIGAGLGVHWYQQLPGTAPKLLIEGYYNRPSGVPDRFSGSKSGTSASLTITGLLPEDEGDYYCQSYDDTLSALFGGGTKLTVLG
notes: human IgG1, lambda
B13 was tested, and the “TL1A Binding Level (Early)” value [1] was 121 RU and the “TL1A Binding Level (Late)” value [2] was 90 RU.

B14: 320-355 (antibody, human IgG1, name in Kabat numbering, V domains shown)
VH: QVQLVQSGAEVKKPGASVKVSCKASGYTFTSYDINWVRQAPGQGLEWMGWLNPNSGNTGYAQKFQGRVTMTADRSTSTAYMELSSLRSEDTAVYYCAREVPETAAFEYWGQGTLVTVSS
VL: QSVLTQPPSVSGAPGQRVTISCTSSSSDIGAGLGVHWYQQLPGTAPKLLIEGYYNRPSGVPDRFSGSKSGTSASLTITGLLPEDEGDYYCQSYDGLLSALFGGGTKLTVLG
notes: human IgG1, lambda
In the case of B14, the “TL1A Binding Level (Early)” value [1] is reported as 102 RU and the “TL1A Binding Level (Late)” value [2] is reported as 76 RU.
